1 molecule from US20250215105A1 (BRIGHTPATH BIOTHERAPEUTICS, published 2025) can be followed below.

The experiment addresses T1, human CD39 on the cell surface (human, UniProt P49961 1-510).
T1 construct: whole, on cells; This one entry covers every cell-surface human CD39 assay, on transfected and on endogenous cells; also called 239T-hCD39; Jurkat-hCD39
T1 sequence (looked up): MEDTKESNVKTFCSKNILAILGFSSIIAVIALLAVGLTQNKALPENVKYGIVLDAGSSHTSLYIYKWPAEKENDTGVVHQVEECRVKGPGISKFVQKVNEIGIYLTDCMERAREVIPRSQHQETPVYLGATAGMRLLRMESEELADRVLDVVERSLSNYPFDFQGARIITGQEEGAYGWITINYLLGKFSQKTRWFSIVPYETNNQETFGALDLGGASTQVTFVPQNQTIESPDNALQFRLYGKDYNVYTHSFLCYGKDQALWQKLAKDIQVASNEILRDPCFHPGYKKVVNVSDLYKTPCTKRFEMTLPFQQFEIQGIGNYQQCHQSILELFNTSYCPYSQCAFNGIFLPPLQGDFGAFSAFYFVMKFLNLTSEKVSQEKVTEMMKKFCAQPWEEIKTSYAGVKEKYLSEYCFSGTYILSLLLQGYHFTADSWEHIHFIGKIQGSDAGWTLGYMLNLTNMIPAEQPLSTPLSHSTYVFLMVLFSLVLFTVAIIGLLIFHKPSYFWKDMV
Briefly: flow cytometry on human CD39-overexpressing HEK293T or Jurkat cells. On the technique in general: In flow cytometry, cells or beads pass a laser one at a time.

B1: P4_h1lala (antibody, V domains shown)
VH: QVQLKESGPSLVQPSQSLSITCTVSGFSLTNYGVHWVRQSPGKGLEWLGVILRRGSTDYNAAFMSRLSITKDNSKSQVFFKMNSLQADDTAIYYCAKTAVVAGDYFDYWGQGTTLTVSS
VL: DIVMTQSHKFMSTSVGDRVSVTCKASQNVGTNVAWYQQKPGQSPKALIYSASYRYSGVPDRFTGSGSGTDFTLTISNVQSEDLAEYFCQQYNSYPLTFGTGTKLEIKR
notes: Chimeric antibody
As for B1, the binding result is on record as “binds”.
